This note sets out measurements from publication PMC3193378 (European Journal of Immunology, 2011).

In assay [1] the target is T1, soluble CD14 protein (sCD14, aa 1-352) (human, UniProt P08571 20-352).
T1 sequence (looked up): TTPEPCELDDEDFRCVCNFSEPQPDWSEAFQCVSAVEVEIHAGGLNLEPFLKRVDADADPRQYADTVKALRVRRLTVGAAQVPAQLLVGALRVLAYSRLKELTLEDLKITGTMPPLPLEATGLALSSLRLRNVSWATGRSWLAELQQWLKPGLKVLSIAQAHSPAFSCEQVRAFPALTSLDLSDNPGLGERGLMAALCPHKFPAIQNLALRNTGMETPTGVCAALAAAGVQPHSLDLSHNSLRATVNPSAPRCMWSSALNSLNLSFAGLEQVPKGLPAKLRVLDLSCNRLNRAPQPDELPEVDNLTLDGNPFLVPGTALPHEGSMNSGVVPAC
Briefly: pull-down.

For assay [2], the target named is T1, soluble CD14 protein (sCD14, aa 1-352). Briefly: ELISA. (ELISA stands for enzyme-linked immunosorbent assay.)

B1: GST-HMGB1 (natural protein, human, UniProt P09429 1-215, looked up)
chain: MGKGDPKKPRGKMSSYAFFVQTCREEHKKKHPDASVNFSEFSKKCSERWKTMSAKEKGKFEDMAKADKARYEREMKTYIPPKGETKKKFKDPNAPKRPPSAFFLFCSEYRPKIKGEHPGLSIGDVAKKLGEMWNNTAADDKQPYEKKAAKLKEKYEKDIAAYRAKGKPDAAKKGVVKAEKSKKKKEEEEDEEDEEDEEEEEDEEDEDEEEDDDDE
Take B1: the binding result in assay [1] was “binds”.

B2: 6-His-tagged HMGB1 B box protein (aa 88-162) (domain or fragment, human, UniProt P09429 88-162, looked up)
chain: KFKDPNAPKRPPSAFFLFCSEYRPKIKGEHPGLSIGDVAKKLGEMWNNTAADDKQPYEKKAAKLKEKYEKDIAAY
Regarding B2, the binding result in assay [2] is reported as “binds”.
